Patent publication US20220064256A1 (published 2022)
Numbering of substitutions follows the chain as printed. One block for each binder: values may come before it.

What was measured:
[1] = biological target: CD22 peptide … (SEQ ID NO: 1) in the context of HLA-A*02:01 (human); assay: cell-based or functional assay
[2] = biological target: T1, CD22 peptide on HLA-A*02:01 (human); assay: killing
T1 peptide: FLSNDTVQL

[3] = biological target: T2, CD22 peptide on HLA-A*02:04 (human); assay: cytokine release
T2 peptide: FLSNDTVQL

[4] = biological target: T3, CD22 peptide on HLA-A*02:05 (human); assay: cytokine release
T3 peptide: FLSNDTVQL

[5] = biological target: T4, CD22 peptide on HLA-A*02:07 (human); assay: cytokine release
T4 peptide: FLSNDTVQL

[6] = biological target: T5, CD22 peptide on HLA-A*02:10 (human); assay: cytokine release
T5 peptide: FLSNDTVQL

[7] = biological target: T6, CD22 peptide on HLA-A*02:02 (human); assay: cytokine release
T6 peptide: FLSNDTVQL

[8] = biological target: T7, CD22 peptide on HLA-A*02:08 (human); assay: cytokine release
T7 peptide: FLSNDTVQL

[9] = biological target: T1, CD22 peptide on HLA-A*02:01; assay: cytokine release

- Kd value by peptide titration on T2 cells (50% of maximal IFNγ release, ELISA) [1]: 1.1e-08
- binding result [3]: recognises
- binding result [4]: recognises
- binding result [5]: recognises
- binding result [6]: recognises
- binding result [7]: no recognition
- binding result [8]: no recognition
B1: CD22 TCR (TCR, V domains shown)
Valpha: EDKVVQSPLSLVVHEGDTVTLNCSYEVTNFRSLLWYKQEKKAPTFLFMLTSSGIEKKSGRLSSILDKKELFSILNITATQTGDSAVYLCAVDNQGGKLIFGQGTELSVKP
Vbeta: GAVVSQHPSWVICKSGTSVKIECRSLDFQATTMFWYRQFPKQSLMLMATSNEGSKATYEQGVEKDKFLINHASLTLSTLTVTSAHPEDSSFYICSARPSGVYNEQFFGPGTRLTVL
- binding result [2]: recognises

- Kd value by peptide titration on T2 cells (50% of maximal IFNγ release, ELISA) [1]: 2.2e-08
- binding result [9]: recognises
B2: CD22 TCR 3225 (TCR, V domains shown)
Valpha: B1 Valpha
Vbeta: B1 Vbeta with P98E, S99A
